One block for each binder: values may come before it.
Columns and labels:
[1] = target: LFA-1 leucine zipper fusion protein (UniProt P20701); assay: ELISA, CAM/Ig on captured integrin
[2] = target: soluble human αd/CD18 leucine zipper heterodimer (human) (UniProt P05107); assay: ELISA, CAM/Ig on αd/CD18LZ captured with 212D

fold above background [1]: 10 fold
B1: ICAM-2/Ig (Fc fusion, part only; not given: Ig Fc portion, UniProt P13598 25-223, looked up, part only)
chain, part: KVFEVHVRPKKLAVEPKGSLEVNCSTTCNQPEVGGLETSLDKILLDEQAQWKHYLVSNISHDTVLQCHFTCSGKQESMNSNVSVYQPPRQVILTLQPTLVAVGKSFTIECRVPTVEPLDSLTLFLFRGNETLHYETFGKAAPAPQEATATFNSTADREDGHRNFSCLAVLDLMSRGGNIFHKHSAPKMLEIYEPVSDSQ

fold increase in signal above background [2]: 5 fold
B2: VCAM-1/IgG1 fusion protein (seven extracellular immunoglobulin-like domains) (Fc fusion, UniProt P19320 25-698, looked up, not shown: a dimerising Fc or GST)
chain: FKIETTPESRYLAQIGDSVSLTCSTTGCESPFFSWRTQIDSPLNGKVTNEGTTSTLTMNPVSFGNEHSYLCTATCESRKLEKGIQVEIYSFPKDPEIHLSGPLEAGKPITVKCSVADVYPFDRLEIDLLKGDHLMKSQEFLEDADRKSLETKSLEVTFTPVIEDIGKVLVCRAKLHIDEMDSVPTVRQAVKELQVYISPKNTVISVNPSTKLQEGGSVTMTCSSEGLPAPEIFWSKKLDNGNLQHLSGNATLTLIAMRMEDSGIYVCEGVNLIGKNRKEVELIVQEKPFTVEISPGPRIAAQIGDSVMLTCSVMGCESPSFSWRTQIDSPLSGKVRSEGTNSTLTLSPVSFENEHSYLCTVTCGHKKLEKGIQVELYSFPRDPEIEMSGGLVNGSSVTVSCKVPSVYPLDRLEIELLKGETILENIEFLEDTDMKSLENKSLEMTFIPTIEDTGKALVCQAKLHIDDMEFEPKQRQSTQTLYVNVAPRDTTVLVSPSSILEEGSSVNMTCLSQGFPAPKILWSRQLPNGELQPLSENATLTLISTKMEDSGVYLCEGINQAGRSRKEVELIIQVTPKDIKLTAFPSESVKEGDTVIISCTCGNVPETWIILKKKAETGDTVLKSIDGAYTIRKAQLKDAGVYECESKNKVGSQLRSLTLDVQGRENNKDYFSPE
